# Laboratory results as given in PMC11470070, “Structural basis for synthase activation and cellulose modification in the E. coli Type II Bcs secretion system” (Nature Communications, 2024).
# Assays:
# [1] = target: T1, BcsQ (BcsR2Q2 in the Bcs macrocomplex) (Escherichia coli, UniProt P0DP92); experiment: cryo-EM structure of the complex; assay type: binding; details: nucleotide-driven BcsQ sandwich dimer; text says ATP-bound, but 10 uM AppCp (non-hydrolysable analogue) was in the purification buffers; 5 mM MgCl2, pH 8.0
# T1 construct: full-length untagged BcsQ with His-BcsR; co-expressed Bcs macrocomplex in E. coli NiCo21(DE3), anti-FLAG purified; nucleotide-driven sandwich dimer; with Cellulose biosynthesis protein BcsR; Cellulose synthase catalytic subunit [UDP-forming]; Cellulose biosynthesis protein BcsF; Cellulose biosynthesis protein BcsG
# T1 sequence (P0DP92 1-250): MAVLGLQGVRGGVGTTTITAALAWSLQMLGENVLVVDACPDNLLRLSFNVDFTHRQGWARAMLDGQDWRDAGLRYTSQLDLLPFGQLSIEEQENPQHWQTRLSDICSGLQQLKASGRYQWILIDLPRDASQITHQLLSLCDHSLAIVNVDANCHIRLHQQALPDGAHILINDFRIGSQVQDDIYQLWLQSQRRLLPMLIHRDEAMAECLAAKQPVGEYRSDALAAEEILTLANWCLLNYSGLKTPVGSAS
# T1 sequence (P0ADJ3 1-62 partner): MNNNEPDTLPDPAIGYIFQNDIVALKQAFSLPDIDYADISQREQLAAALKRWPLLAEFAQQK
# [2] = target: T2, BcsE (in the BcsR2Q2AB6E2F2G3 Bcs macrocomplex) (Escherichia coli, UniProt P37657); experiment: cryo-EM structure of the complex; assay type: binding; details: intercalated c-di-GMP dimer per BcsE protomer at the REC*-GGDEF* dual I-site (R306ATD, R415TGD); 2-4 uM c-di-GMP, 5 mM MgCl2, pH 8.0
# T2 construct: full-length, N-terminal Strep II tag; co-expressed Bcs macrocomplex in E. coli NiCo21(DE3), anti-FLAG purified; with Cellulose biosynthesis protein BcsF; Cellulose biosynthesis protein BcsR; Cellulose biosynthesis protein BcsQ; Cellulose synthase catalytic subunit [UDP-forming]; Cellulose biosynthesis protein BcsG
# [3] = target: the molecule itself; experiment: cryo-EM structure; same sample and grids as a1; class of particles with a c-di-GMP-free BcsA synthase (non-saturated macrocomplex), with local refinements
# [4] = target: T3, BcsA cellulose synthase (BcsA^HA-FLAG) (E. coli, UniProt P37653 1-872); experiment: as above; details: both partners purified
# T3 construct: BcsA, E. coli; amplified within the genomic region bcsRQA^HA-FLAGB from genomic DNA of the E. coli 1094 bcsA^HA-FLAG strain; domains NTD, TMD, GT, PilZ, C-terminal tail; Expressed from the whole genomic region bcsRQAB of strain 1094; One copy in the macrocomplex; source: for the BcsF variants E. coli Δbcs BL21*(DE3)
# T3 sequence: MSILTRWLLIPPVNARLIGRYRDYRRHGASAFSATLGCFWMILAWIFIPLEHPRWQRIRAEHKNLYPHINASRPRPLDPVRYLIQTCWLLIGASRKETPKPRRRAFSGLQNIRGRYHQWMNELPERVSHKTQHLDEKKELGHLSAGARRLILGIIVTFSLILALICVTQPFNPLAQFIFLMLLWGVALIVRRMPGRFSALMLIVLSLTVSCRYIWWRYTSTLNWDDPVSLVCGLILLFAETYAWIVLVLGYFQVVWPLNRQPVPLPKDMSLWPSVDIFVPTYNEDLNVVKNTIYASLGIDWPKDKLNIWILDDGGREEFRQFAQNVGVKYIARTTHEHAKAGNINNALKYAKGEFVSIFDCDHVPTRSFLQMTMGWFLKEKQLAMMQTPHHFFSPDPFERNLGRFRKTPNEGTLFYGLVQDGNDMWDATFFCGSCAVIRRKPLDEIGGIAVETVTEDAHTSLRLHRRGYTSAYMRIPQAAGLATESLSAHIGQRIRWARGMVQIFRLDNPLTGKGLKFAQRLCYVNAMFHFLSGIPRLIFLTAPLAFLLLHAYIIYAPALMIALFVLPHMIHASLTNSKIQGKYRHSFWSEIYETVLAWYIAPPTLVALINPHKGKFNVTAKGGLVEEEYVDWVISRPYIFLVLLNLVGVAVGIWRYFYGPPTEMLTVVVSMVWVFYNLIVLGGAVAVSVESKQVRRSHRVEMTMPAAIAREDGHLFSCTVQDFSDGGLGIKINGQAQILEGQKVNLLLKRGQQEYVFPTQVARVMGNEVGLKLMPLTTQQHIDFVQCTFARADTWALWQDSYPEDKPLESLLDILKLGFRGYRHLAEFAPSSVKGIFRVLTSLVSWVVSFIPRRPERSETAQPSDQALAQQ
# [5] = target: the molecule itself; experiment: cryo-EM structure; Bcs macrocomplex co-expressed in E. coli and purified on anti-FLAG gel by BcsA^HA-FLAG, 20 mM HEPES pH 8.0, 120 mM NaCl, 5 mM MgCl2, 10 μM AppCp, 4 μM c-di-GMP, 0.01% LM-NPG; class of the c-di-GMP-saturated macrocomplex with local refinements; the BcsB crown refined from all particles
Molecule,stoichiometry N [3],stoichiometry N [5],other results
Nc1ncnc2c1ncn2[C@@H]1O[C@H](COP(=O)(O)OP(=O)(O)OP(=O)(O)O)[C@@H](O)[C@H]1O [ATP],–,–,cryo-EM structure of the complex [1]: the BcsR copies stabilize the ATP-bound BcsQ apical dimer
Nc1nc2c(ncn2[C@@H]2O[C@@H]3COP(=O)(O)O[C@H]4[C@@H](O)[C@H](n5cnc6c(=O)[nH]c(N)nc65)O[C@@H]4COP(=O)(O)O[C@H]3[C@H]2O)c(=O)[nH]1 [c-di-GMP],–,–,cryo-EM structure of the complex [2]: An intercalated c-di-GMP dimer is found at each cis-interdomain interface of a closed BcsE
"BcsG pEtN-transferase (enzyme, E. coli, BcsG, E. coli; amplified within the genomic region bcsEFG; N-terminal domain of 5 transmembrane helices, 48-residue linker, C-terminal pEtN-transferase domain (the last not resolved in the maps); Three copies in the macrocomplex; also called BcsG^NTD; BcsG3) MTQFTQNTAMPSSLWQYWRGLSGWNFYFLVKFGLLWAGYLNFHPLLNLVFAAFLLMPLPRYSLHRLRHWIALPIGFALFWHDTWLPGPESIMSQGSQVAGFSTDYLIDLVTRFINWQMIGAIFVLLVAWLFLSQWIRITVFVVAILLWLNVLTLAGPSFSLWPAGQPTTTVTTTGGNAAATVAATGGAPVVGDMPAQTAPPTTANLNAWLNNFYNAEAKRKSTFPSSLPADAQPFELLVINICSLSWSDIEAAGLMSHPLWSHFDIEFKNFNSATSYSGPAAIRLLRASCGQTSHTNLYQPANNDCYLFDNLSKLGFTQHLMMGHNGQFGGFLKEVRENGGMQSELMDQTNLPVILLGFDGSPVYDDTAVLNRWLDVTEKDKNSRSATFYNTLPLHDGNHYPGVSKTADYKARAQKFFDELDAFFTELEKSGRKVMVVVVPEHGGALKGDRMQVSGLRDIPSPSITDVPVGVKFFGMKAPHQGAPIVIEQPSSFLAISDLVVRVLDGKIFTEDNVDWKKLTSGL",3,–,stoichiometry N [4]: 3
"BcsB co-polymerase (natural protein, E. coli, UniProt P37652 26-779, looked up, BcsB, E. coli; amplified within the genomic region bcsRQA^HA-FLAGB of E. coli 1094; periplasmic modules CBD1-FD1-CBD2-FD2 and a C-terminal tail-anchor (TA); Six copies in the macrocomplex; the strain used is 1094; also called BcsB^TA (tail-anchor); periplasmic crown) TPATQPLINAEPAVAAQTEQNPQVGQVMPGVQGADAPVVAQNGPSRDVKLTFAQIAPPPGSMVLRGINPNGSIEFGMRSDEVVTKAMLNLEYTPSPSLLPVQSQLKVYLNDELMGVLPVTKEQLGKKTLAQMPINPLFISDFNRVRLEFVGHYQDVCEKPASTTLWLDVGRSSGLDLTYQTLNVKNDLSHFPVPFFDPSDNRTNTLPMVFAGAPDVGLQQASAIVASWFGSRSGWRGQNFPVLYNQLPDRNAIVFATNDKRPDFLRDHPAVKAPVIEMINHPQNPYVKLLVVFGRDDKDLLQAAKGIAQGNILFRGESVVVNEVKPLLPRKPYDAPNWVRTDRPVTFGELKTYEEQLQSSGLEPAAINVSLNLPPDLYLMRSTGIDMDINYRYTMPPVKDSSRMDISLNNQFLQSFNLSSKQEANRLLLRIPVLQGLLDGKTDVSIPALKLGATNQLRFDFEYMNPMPGGSVDNCITFQPVQNHVVIGDDSTIDFSKYYHFIPMPDLRAFANAGFPFSRMADLSQTITVMPKAPNEAQMETLLNTVGFIGAQTGFPAINLTVTDDGSTIQGKDADIMIIGGIPDKLKDDKQIDLLVQATESWVKTPMRQTPFPGIVPDESDRAAETRSTLTSSGAMAAVIGFQSPYNDQRSVIALLADSPRGYEMLNDAVNDSGKRATMFGSVAVIRESGINSLRVGDVYYVGHLPWFERVWYALANHPILLAVLAAISVILLAWVLWRLLRIISRRRLNPDNE",–,6,–
"BcsF (natural protein, E. coli, BcsF, E. coli; amplified within the genomic region bcsEFG; single transmembrane helix, amphipathic helical extension and cytosolic C-terminal tail; Two copies in the macrocomplex; also called inner membrane polypeptide BcsF; source: for the BcsF variants experiment E. coli Δbcs BL21*(DE3)) MMTISDIIEIIVVCALIFFPLGYLARHSLRRIRDTLRLFFAKPRYVKPAGTLRRTEKARATKK",2,–,–
"BcsQ (natural protein, E. coli, BcsQ, E. coli; amplified within the genomic region bcsRQA^HA-FLAGB of E. coli 1094; the strain used is 1094; also called SIMIBI family NTPase BcsQ) MAVLGLQGVRGGVGTTTITAALAWSLQMLGENVLVVDACPDNLLRLSFNVDFTHRQGWARAMLDGQDWRDAGLRYTSQLDLLPFGQLSIEEQENPQHWQTRLSDICSGLQQLKASGRYQWILIDLPRDASQITHQLLSLCDHSLAIVNVDANCHIRLHQQALPDGAHILINNFRIGSQVQDDIYQLWLQSQRRLLPMLIHRDEAMAECLAAKQPVGEYRSDALAAEEILTLANWCLLNYSGLKTPVGSKS",–,2,–
